Laboratory results reported in article PMC1669778.

Columns and labels:
[1] = molecular target: C-terminal fragment of human topoisomerase I (HTOP14) (human) (UniProt P11387); experiment: pull-down
[2] = molecular target: C-terminal fragment of human topoisomerase I (HTOP14) (human) (UniProt P11387); experiment: fluorescence polarisation
[3] = molecular target: small subunit of L.donovani topoisomerase I (LdTOP1S) (Leishmania donovani); experiment: fluorescence polarisation
[4] = molecular target: LdTOP1L-fus-HTOP14 (Leishmania donovani / human chimera, UniProt A0A3Q8IHS4 1-635+=EF+P11387:636-765, internal_change); experiment: SDS trapping of covalent complex

Molecule	stoichiometry N [1]	Kd [2]	Kd [3]	binding signal [4]
large subunit of L.donovani topoisomerase I (LdTOP1L) (natural protein)	1	162 nM	59.8 nM	
25mer duplex ML25/MC25 (dsDNA) DNA 1: GAAAAAAGACTTAGAAAAATTTTTA DNA 2: TAAAAATTTTTCTAAGTCTTTTTTC				~2 fold more covalent complex than LdTOP1L/S
